Results on one substance are retold here after patent publication US20100239579A1.

The target of this assay is human SIRPα (signal regulatory protein alpha), full-length (human) (UniProt P78324). The assay can be described thus: cell-based or functional assay.
Sequence of human SIRPα (signal regulatory protein alpha), full-length (human) (P78324 31-504): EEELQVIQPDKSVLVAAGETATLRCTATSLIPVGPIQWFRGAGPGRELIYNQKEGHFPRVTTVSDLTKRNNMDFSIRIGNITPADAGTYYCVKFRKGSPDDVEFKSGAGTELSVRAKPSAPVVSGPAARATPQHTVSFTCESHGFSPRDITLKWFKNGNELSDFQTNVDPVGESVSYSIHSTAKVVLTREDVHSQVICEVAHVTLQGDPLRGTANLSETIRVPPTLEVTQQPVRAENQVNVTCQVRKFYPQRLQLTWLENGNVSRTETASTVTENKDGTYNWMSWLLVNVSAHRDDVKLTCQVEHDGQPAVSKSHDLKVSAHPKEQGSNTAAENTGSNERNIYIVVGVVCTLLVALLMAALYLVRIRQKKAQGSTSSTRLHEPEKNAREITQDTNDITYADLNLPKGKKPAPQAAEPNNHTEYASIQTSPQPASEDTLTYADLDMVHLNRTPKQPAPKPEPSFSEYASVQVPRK

The substance “hCD47-hFc (human CD47 extracellular Ig-V domain fused to the Fc region of human IgG1), Example 8 (from UniProt Q08722 19-142) (Fc fusion)” yielded an inhibition of FSL-1 mediated TNF-α production of human DCs by hCD47-hFc immobilized on anti-human Fc coated plates of 78 ng/mL and an inhibition of SAC-induced IL-23 secretion in human DCs of 11 ng/mL.
